Experimental findings from publication PMC10530652 (BME Frontiers, 2021) are described below.

Data set [1] concerns MMP activity in the alveolar space. Put plainly: In-human alveolar FCFM imaging after endobronchial delivery of FIB One. The class given is in vivo. The conditions noted are these: FIB One microdose <100 μg, bolus, patients with parenchymal fibrosis, n=4. The protocol:
All participants were scheduled for routine, clinical diagnostic flexible bronchoscopy in our institution with a known or suspected diagnosis of fibrosis or lung cancer. All eight patients had computerized tomography performed prior to bronchoscopy and regions of active disease identified for targeted investigation.
Bronchoscopy was undertaken in an outpatient suite using local anaesthetic and conscious sedation or in theatre under general anaesthetic. FCFM was performed using a clinically approved confocal laser scanning endomicroscopy device (Cellvizio®, Mauna Kea Technologies) with a compatible imaging fibre (Alveoflex™ or Miniaturized Alveoflex™, Mauna Kea Technologies).
In initial exploratory testing, 8 patients with either endobronchial tumour or parenchymal fibrosis underwent FIB One microdosing (<100 μg, <5 mL). […] Images were recorded for at least 30 s at 12 frames/second.
All video sequences were assessed by two clinicians with clinical experience of pulmonary endomicroscopy. […] Videos were assessed to ensure stability throughout the imaging procedure. […] All video files were analysed using the Cellvizio® Viewer image processing software from Mauna Kea Technologies, Paris. […] The median RFU was calculated for each category and used as a comparative value between groups.

The test system of data set [2] is Salmonella typhimurium strain TA98. Put plainly: Reduced test article AMES test, TA98. The data set is classed as cell-based. The note with it: up to 250 μg/well, in the absence and presence of rat liver S-9. How it is done:
These conditions included treatments at concentrations up to 250 μg/well (a 20-fold pro rata reduction from the standard regulatory Ames assay maximum concentration), in the absence and in the presence of a rat liver metabolic activation system (S-9).

The target of data set [3] is T1, MMP-9 (Homo sapiens, UniProt P14780).
T1 construct: recombinant MMPs (Enzo Life Sciences) (active domains of MMP-1, MMP-2, MMP-3, MMP-7, MMP-8, MMP-9, MMP-10, MMP-11, MMP-12, and MMP-13); purchased Enzo Life Sciences
Briefly: In vitro enzymatic validation of FIB One with recombinant MMP-9 (plate reader). The class given is biochemical. The conditions noted are these: MMP 30 nM, n=3 in duplicate. The protocol:
To determine the enzymatic specificity of FIB One, the probe was incubated at a concentration of 1 μM (unless otherwise stated) with the recombinant MMPs (Enzo Life Sciences) (active domains of MMP-1, MMP-2, MMP-3, MMP-7, MMP-8, MMP-9, MMP-10, MMP-11, MMP-12, and MMP-13, all at 30 nM), thrombin (Sigma Aldrich) (5 U/mL), factor Xa (Sigma Aldrich) (500 nM), plasmin (Sigma Aldrich) (30 nM), and human neutrophil elastase (30 nM). Where appropriate, enzymes were incubated with specific inhibitors for 30 min at 37°C prior to addition of FIB One. […] Enzyme free reactions served as a control. Enzymatic reactions were performed in MMP buffer (10 mM CaCl2, 6.1 g Tris-HCl, 8.6 g NaCl per litre, pH 7.5) in a final volume of 20 μL. Reactions were performed in duplicate in 384-well plates (Life Technologies) with optically clear plate seals (Thermo Scientific) and repeated thrice (independently). Fluorescence signal was measured for up to 60 min, ex/em 485/528 nm using microplate reader (BioTek Synergy H1 multimode reader). Data were normalised to buffer alone and are presented as fold-change in signal (relative fluorescent units, RFU) compared to enzyme-free controls. Data were plotted using Prism 7 (GraphPad Software Inc., La Jolla, CA, USA).

For data set [4], the system named is erythrocyte. Put plainly: Erythrocyte hemolysis. The data set is classed as cell-based.
Data set [5] deals with patients with fibroproliferative lung disease. Briefly: Adverse events in the FIB One clinical study. The data set is classed as in vivo, human. How it is done: In initial exploratory testing, 8 patients with either endobronchial tumour or parenchymal fibrosis underwent FIB One microdosing (<100 μg, <5 mL). FIB One was administered using a delivery catheter (ERBE APC catheter or TLBC) passed out of the working channel of the wedged bronchoscope into the bronchus allowing distal dissipation of the compound for alveolar imaging or applied directly onto visible tumour. FCFM imaging was performed pre- and postinstillation of FIB One, with the fibre tip positioned at the bronchial mucosa or passed into the alveolar region following transbronchial puncture, as appropriate for the clinical indication. Images were recorded for at least 30 s at 12 frames/second.
In subsequent testing the Miniaturized Alveoflex™-TLBC combination replaced the Alveoflex™ fibre. The entire apparatus was passed transbronchially to allow direct alveolar imaging before localised delivery of agents. Once transbronchial pass was accomplished, baseline lung imaging was recorded for at least 30 sec. A 500 μL microdose of either AZD1236 (14 μg/mL) or sterile PBS (control) was administered under direct observation, and further imaging was obtained for >60 sec. 500 μL of FIB One (20 μg/mL) (delivered only after at least 60s to allow MMP inhibition) was then dosed to the same area with a further 90-120 sec of imaging captured. If considerable movement due to breathing or coughing was encountered, imaging was halted and a new segment identified. Up to 6 segments of interest were investigated per patient determined by patient tolerance.
Table S5: Patient demographics and AEs part B. Three patients reported adverse events within the 24h period post procedure all of which are commonly associated with flexible bronchoscopy.

T1 sequence (P14780 107-444 limits assumed): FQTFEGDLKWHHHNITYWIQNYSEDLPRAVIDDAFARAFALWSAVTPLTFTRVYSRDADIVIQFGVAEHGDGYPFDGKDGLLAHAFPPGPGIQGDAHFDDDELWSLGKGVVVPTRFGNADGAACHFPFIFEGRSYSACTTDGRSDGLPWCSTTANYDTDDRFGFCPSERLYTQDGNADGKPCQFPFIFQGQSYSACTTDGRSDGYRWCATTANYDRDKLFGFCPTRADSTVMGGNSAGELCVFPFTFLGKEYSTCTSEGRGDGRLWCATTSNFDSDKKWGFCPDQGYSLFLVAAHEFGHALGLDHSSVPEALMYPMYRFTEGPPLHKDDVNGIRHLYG

On to (Pro-Phe-Gly-Nle-Lys-βAla)3 [FIB One], for which the “alveolar FCFM fluorescent signal following endobronchial delivery” value in data set [1] is on record as “increased fluorescent signal”. In addition, the mutation induction entry in data set [2] is reported as “did not induce mutation”. In addition, the “fluorescent amplification of FIB One on exposure to enzyme” value in data set [3] (FIB One 1 μM, MMP buffer pH 7.5, ex/em 485/528 nm, fold-change vs enzyme-free control) is “rapid and specific fluorescent amplification”. Also, in data set [3] (probes 1 µM, 10 min incubation), the “signal amplification compared with analogous monomeric linear structure (FRET-monomer)” value is on record as “improved signal amplification”. Besides, in data set [4], the erythrocyte hemolysis result is reported as “absence of erythrocyte hemolysis”. Also, the “Adverse Events” value was “Nil and Haemoptysis and Cough and Fever” in data set [5] (Part A, one line per patient DO01-DO08, FIB One microdose <100 μg); “Nil and Cough and Cough Fever and Haemoptysis” in data set [5] (Part B, one line per patient DO09-DO17, FIB One with or without AZD1236 via TLBC, within 24h post procedure). The significant adverse events entry in data set [5] (eight patients, endobronchial FIB One bolus) is recorded as “no significant adverse events”.
